Common to all, as to assay: two-hybrid library CCNG1;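 note: natural log of median RNA to DNA barcode read ratio; higher means stronger binding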
One test addresses T1, P7bH1.
T1 chain: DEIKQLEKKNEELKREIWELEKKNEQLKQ

The target of the next test is T2, P8bH1.
T2 chain: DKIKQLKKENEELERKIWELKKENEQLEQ

In a further test the target is T3, P6bH1.
T3 chain: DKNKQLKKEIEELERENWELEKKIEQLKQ

The target in a further test is T4, P3bH1.
T4 chain: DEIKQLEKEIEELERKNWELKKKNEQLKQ

The target of a further test is T5, P9bH1.
T5 chain: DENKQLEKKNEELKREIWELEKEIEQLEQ

For the next test, the target named is T6, P4bH1.
T6 chain: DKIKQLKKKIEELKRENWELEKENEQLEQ

The target of the next test is T7, P5bH1.
T7 chain: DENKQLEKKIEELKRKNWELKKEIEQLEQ

Another test addresses T8, P2bH1.
T8 chain: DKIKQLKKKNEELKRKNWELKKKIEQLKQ

A further test has as its target T9, P1bH1.
T9 chain: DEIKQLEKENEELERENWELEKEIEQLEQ

Another test addresses T10, 4H3907-bN.
T10 chain: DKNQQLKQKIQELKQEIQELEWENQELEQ

Another test deals with T11, 4H932-bA.
T11 chain: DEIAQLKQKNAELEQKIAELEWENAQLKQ

The target of a further test is T12, 4H477-bN.
T12 chain: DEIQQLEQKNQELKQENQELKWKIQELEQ

In another test the target is T13, 4H4038-bN.
T13 chain: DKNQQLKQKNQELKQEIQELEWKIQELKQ

The target of the next test is T14, 4H3592-bN.
T14 chain: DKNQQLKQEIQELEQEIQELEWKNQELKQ

The next test has as its target T15, 4H2586-bA.
T15 chain: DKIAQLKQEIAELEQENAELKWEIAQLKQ

The target of the next test is T16, 4H3601-bN.
T16 chain: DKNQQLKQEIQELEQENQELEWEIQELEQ

A further test addresses T17, 4H1406-bN.
T17 chain: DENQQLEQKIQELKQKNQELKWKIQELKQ

B1: P1bH1 (peptide)
chain: DEIKQLEKENEELERENWELEKEIEQLEQ
In the case of B1, the interaction score with P7bH1 was -0.809; with P8bH1, -0.757; with P6bH1 it was -1.2; with P3bH1, -1.08; with P9bH1, -0.87; in the test with P4bH1, -1.38. The interaction score with P5bH1 was -1.15; with P2bH1, 1.17; with P1bH1 it was -0.717.

B2: 4H1406-bN (peptide)
chain: DENQQLEQKIQELKQKNQELKWKIQELKQ
Turning to B2, the interaction score with 4H3907-bN is 0.347; with 4H932-bA, -1.96; with 4H477-bN it was -2.09; in the test with 4H4038-bN it was -1.69; with 4H3592-bN, 0.142; with 4H2586-bA it was 0.875. In addition, the interaction score was 1.53 with 4H3601-bN and -0.553 in the test with 4H1406-bN.

The record behind these values is paper PMC10397247.
